Patent US20140161790A1 (Xencor, published 2014)

B1: bevacizumab IgG1 Fc variant N434S (antibody)
heavy: not shown
light: not shown
notes: copies: 2 + 2
B2: bevacizumab IgG1 Fc variant M252Y/S254T/T256E (antibody)
heavy: EVQLVESGGGLVQPGGSLRLSCAASGYTFTNYGMNWVRQAPGKGLEWVGWINTYTGEPTYAADFKRRFTFSLDTSKSTAYLQMNSLRAEDTAVYYCAKYPHYYGSSHWYFDVWGQGTLVTVSSASTKGPSVFPLAPSSKSTSGGTAALGCLVKDYFPEPVTVSWNSGALTSGVHTFPAVLQSSGLYSLSSVVTVPSSSLGTQTYICNVNHKPSNTKVDKKVEPKSCDKTHTCPPCPAPELLGGPSVFLFPPKPKDTLYITREPEVTCVVVDVSHEDPEVKFNWYVDGVEVHNAKTKPREEQYNSTYRVVSVLTVLHQDWLNGKEYKCKVSNKALPAPIEKTISKAKGQPREPQVYTLPPSREEMTKNQVSLTCLVKGFYPSDIAVEWESNGQPENNYKTTPPVLDSDGSFFLYSKLTVDKSRWQQGNVFSCSVMHEALHNHYTQKSLSLSPGK
light: not shown
notes: also called YTE; copies: 2 + 2
B3: bevacizumab IgG1 Fc variant M428L/N434S (antibody)
heavy: not shown
light: not shown
notes: also called LS; LS bevacizumab variant; copies: 2 + 2
B4: bevacizumab IgG1 Fc variant V259I/V308F (antibody)
heavy: not shown
light: not shown
notes: also called IF; copies: 2 + 2
B5: bevacizumab IgG1 Fc variant V259I/V308F/M428L (antibody)
heavy: EVQLVESGGGLVQPGGSLRLSCAASGYTFTNYGMNWVRQAPGKGLEWVGWINTYTGEPTYAADFKRRFTFSLDTSKSTAYLQMNSLRAEDTAVYYCAKYPHYYGSSHWYFDVWGQGTLVTVSSASTKGPSVFPLAPSSKSTSGGTAALGCLVKDYFPEPVTVSWNSGALTSGVHTFPAVLQSSGLYSLSSVVTVPSSSLGTQTYICNVNHKPSNTKVDKKVEPKSCDKTHTCPPCPAPELLGGPSVFLFPPKPKDTLMISRTPEITCVVVDVSHEDPEVKFNWYVDGVEVHNAKTKPREEQYNSTYRVVSVLTFLHQDWLNGKEYKCKVSNKALPAPIEKTISKAKGQPREPQVYTLPPSREEMTKNQVSLTCLVKGFYPSDIAVEWESNGQPENNYKTTPPVLDSDGSFFLYSKLTVDKSRWQQGNVFSCSVLHEALHNHYTQKSLSLSPGK
light: not shown
notes: also called IFL; copies: 2 + 2

Columns and labels:
[1] = target: T1, human FcRn (heterodimer of alpha chain and beta2-microglobulin) (human, UniProt P55899 24-297; P61769 21-119, limits assumed); test: SPR, FcRn coupled directly to CM5 chip, antibody analyte at 200 nM bound at pH 6.0, dissociation at pH 7.4; avid format, relative values only
T1 construct: Co-expressed in HEK293T cells; also called hFcRn; human neonatal Fc receptor
T1 sequence (P55899 24-297 limits assumed, chain 1 of 2): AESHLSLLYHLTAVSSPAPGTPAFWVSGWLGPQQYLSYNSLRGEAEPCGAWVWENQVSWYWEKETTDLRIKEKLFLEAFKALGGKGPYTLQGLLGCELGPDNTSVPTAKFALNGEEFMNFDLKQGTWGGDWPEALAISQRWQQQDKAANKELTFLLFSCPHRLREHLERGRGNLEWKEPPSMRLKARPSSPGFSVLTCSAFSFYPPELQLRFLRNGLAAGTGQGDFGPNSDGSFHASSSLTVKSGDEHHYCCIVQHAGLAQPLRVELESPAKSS
T1 sequence (P61769 21-119 limits assumed, chain 2 of 2): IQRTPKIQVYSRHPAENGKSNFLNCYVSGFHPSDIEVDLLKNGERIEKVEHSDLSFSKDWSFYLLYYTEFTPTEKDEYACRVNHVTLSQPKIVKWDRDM

[2] = target: T1, human FcRn (heterodimer of alpha chain …); test: SPR as above, pH 6.0; fold KD against native IgG1
[3] = target: T1, human FcRn (heterodimer of alpha chain …); test: SPR (Biacore 3000), antibody captured on immobilized VEGF, human FcRn as analyte, pH 6.0, 1:1 Langmuir fit

Row | Binder | koff [1] | Fold KD [2] | Kd [3] | koff [3] | kon [3]
1 | B1 | 0.29 s⁻¹ | – | – | – | –
2 | B2 | 0.32 s⁻¹ | 7.24 fold | 340 nM | 0.0549 s⁻¹ | 162000 M⁻¹ s⁻¹
3 | B3 | 0.33 s⁻¹ | – | – | – | –
4 | B4 | 0.6 s⁻¹ | 5.8 fold | 424 nM | 0.0752 s⁻¹ | 178000 M⁻¹ s⁻¹
5 | B5 | 0.13 s⁻¹ | 19.8 fold | 124 nM | 0.0238 s⁻¹ | 192000 M⁻¹ s⁻¹
